# Results taken from patent US20230321189.
# B1: purified rat m-calpain (protein)
# chain: MAGIAMKLAKDREAAEGLGSHERAIKYLNQDYETLRNECLEAGALFQDPSFPALPSSLGFKELGPYSSKTRGIEWKRPTEICADPQFIIGGATRTDICQGALGDCWLLAAIASLTLNEEILARVVPLDQSFQENYAGIFHFQFWQYGEWVEVVVDDRLPTKDGELLFVHSAEGSEFWSALLEKAYAKINGCYEALSGGATTEGFEDFTGGIAEWYELRKPPPNLFKIIQKALEKGSLLGCSIDITSAADSEAVTYQKLVKGHAYSVTGAEEVESSGSLQKLIRIRNPWGQVEWTGKWNDNCPSWNTVDPEVRANLTERQEDGEFWMSFSDFLRHYSRLEICNLTPDTLTCDSYKKWKLTKMDGNWRRGSTAGGCRNYPNTFWMNPQYLIKLEEEDEDDEDGERGCTFLVGLIQKHRRRQRKMGEDMHTIGFGIYEVPEELTGQTNIHLSKNFFLTTRARERSDTFINLREVLNRFKLPPGEYVLVPSTFEPHKNGDFCIRVFSEKKADYQTVDDEIEANIEEIEANEEDIGDGFRRLFAQLAGEDAEISAFELQTILRRVLAKREDIKSDGFSIETCKIMVDMLDEDGSGKLGLKEFYILWTKIQKYQKIYREIDVDRSGTMNSYEMRKALEEAGFKLPCQLHQVIVARFADDELIIDFDNFVRCLVRLEILFKIFKQLDPENTGTIQLDLISWLSFSVL
# Target: tropomyosin-receptor kinase B-full-length (TrkB-FL), endogenous rat, Q63604
# Sequence (Q63604 32-821): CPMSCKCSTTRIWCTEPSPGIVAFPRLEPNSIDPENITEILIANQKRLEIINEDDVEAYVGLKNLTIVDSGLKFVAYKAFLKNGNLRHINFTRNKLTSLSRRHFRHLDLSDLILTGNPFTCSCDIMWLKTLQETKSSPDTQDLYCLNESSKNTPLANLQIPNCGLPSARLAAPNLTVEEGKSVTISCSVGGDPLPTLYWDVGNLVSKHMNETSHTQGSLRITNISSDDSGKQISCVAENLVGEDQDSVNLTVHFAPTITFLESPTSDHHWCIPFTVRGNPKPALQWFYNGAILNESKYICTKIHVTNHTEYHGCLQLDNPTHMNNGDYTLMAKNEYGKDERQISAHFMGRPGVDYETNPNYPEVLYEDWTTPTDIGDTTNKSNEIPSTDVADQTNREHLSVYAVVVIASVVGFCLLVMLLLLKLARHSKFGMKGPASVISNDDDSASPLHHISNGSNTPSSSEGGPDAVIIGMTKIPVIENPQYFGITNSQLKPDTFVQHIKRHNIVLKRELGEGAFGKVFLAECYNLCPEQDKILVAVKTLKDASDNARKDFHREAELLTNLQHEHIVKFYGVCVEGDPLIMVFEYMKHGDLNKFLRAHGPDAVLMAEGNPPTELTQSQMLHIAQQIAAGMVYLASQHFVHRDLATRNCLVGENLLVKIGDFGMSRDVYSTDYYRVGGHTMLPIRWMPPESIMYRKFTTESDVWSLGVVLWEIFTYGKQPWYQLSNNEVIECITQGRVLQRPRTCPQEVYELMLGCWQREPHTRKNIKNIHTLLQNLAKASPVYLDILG
protein,measurement,value
B1,"TrkB-FL protein levels and TrkB-ICD formation in DIV8 neuronal cultures lysate (western blot, enzyme cleavage)",decrease of TrkB-FL protein levels with concomitant TrkB-ICD formation when both exogenous m-calpain (1 or 2 EU) and CaCl2 (2 mM) were added
same,"TrkB-FL protein levels and TrkB-ICD formation in adult rat brain cortex homogenate (western blot, enzyme cleavage)","decrease of TrkB-FL protein levels with concomitant TrkB-ICD formation when both exogenous m-calpain (1 or 2 enzymatic units, EU) and CaCl2 (2 mM) were added"
